Legend:
Experiment in all cases: SEC + other: dynamic light scattering
[1] = target: G. stearothermophilus GerD D118A (Geobacillus stearothermophilus)
[2] = target: G. stearothermophilus GerD F86P (Geobacillus stearothermophilus)
[3] = target: G. stearothermophilus GerD M36P (Geobacillus stearothermophilus)
[4] = target: G. stearothermophilus GerD M111P (Geobacillus stearothermophilus)
[5] = target: G. stearothermophilus GerD M138P (Geobacillus stearothermophilus)
[6] = target: G. stearothermophilus GerD Q122A (Geobacillus stearothermophilus)
[7] = target: G. stearothermophilus GerD R148A (Geobacillus stearothermophilus)
[8] = target: G. stearothermophilus GerD ΔH01-02 (Geobacillus stearothermophilus)
[9] = target: G. stearothermophilus GerD ΔH5-8 (Geobacillus stearothermophilus)
[10] = target: G. stearothermophilus GerD ΔH6-8 (Geobacillus stearothermophilus)

Work on “G. stearothermophilus GerD D118A (from UniProt A0ACH1E844 1-195) (natural protein)” yielded a stoichiometry N [1] of 3.
“G. stearothermophilus GerD F86P (from UniProt A0ACH1E844 1-195) (natural protein)” gave a stoichiometry N [2] of 3.
In the case of “G. stearothermophilus GerD M36P (from UniProt A0ACH1E844 1-195) (natural protein)”, the stoichiometry N [3] was 3.
“G. stearothermophilus GerD M111P (from UniProt A0ACH1E844 1-195) (natural protein)” was tested, and the stoichiometry N [4] was 3.
In the case of “G. stearothermophilus GerD M138P (from UniProt A0ACH1E844 1-195) (natural protein)”, the stoichiometry N [5] was 3.
“G. stearothermophilus GerD Q122A (from UniProt A0ACH1E844 1-195) (natural protein)” gave a stoichiometry N [6] of 3.
Substance “G. stearothermophilus GerD R148A (from UniProt A0ACH1E844 1-195) (natural protein)” has a stoichiometry N [7] of 3.
“G. stearothermophilus GerD ΔH01-02 (from UniProt A0ACH1E844 60-180) (domain or fragment)” gave a stoichiometry N [8] of 3.
“G. stearothermophilus GerD ΔH5-8 (from UniProt A0ACH1E844 1-120) (domain or fragment)” gave a stoichiometry N [9] of 3.
With “G. stearothermophilus GerD ΔH6-8 (from UniProt A0ACH1E844 1-133) (domain or fragment)” the stoichiometry N [10] was 3.
